This data set is described as follows: soluble fraction after stress (log2 fold change); higher = more stays soluble; pooled small domains, quantitative proteomics. As to conditions: stress: pH 4. The essentials: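 Small protein domains from pooled custom libraries were exposed to pH 4, then quantified with high-throughput quantitative proteomics. The fold change in how much of each domain remains soluble is read as aggregation propensity. It is given as log2, with higher values meaning more stayed soluble.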

This is an account of results in the domain aggregation screens of Martell et al. (2025).

For “HMAISEEEATNLALERVPGASAQDLRIQLEFDDGVQKYEGDIIYDGKEYDFEIDANTGTFLEWSE”, the “soluble fraction (log2)” value is 0.22. Under “HMAISSADRIVAELRTWISGASPGTQLPSSRTLAARYGASPVTVQKALHTLAGMGLVEARPGAGTFVRRQS” stands not below 0.43; under “HMAITVPEGATLSDAAVLLKQAGAVRSADAFLTRAKVFGGSTPIKAGEFVIPVQASNKDILAILQGGK”, -0.193. Under “HMAKIATTVYEQIRTAILNGELSNSERLVEEDLAVSMGISRTPVREALRRLAAEGLVDVSPNRGARVAE” stands -0.778; under “HMAKINFTSDAIDIGMVTRNDIEMLSFYQNVLGLTKDMEIPFPGLGVVNKLSFGSGFIKILVL”, -0.272.

With “HMAKLGITQREQEVLQLLVTGKTYKEIAAELFISLPTVKTHVSNIYSKAKVRNRLELSNLINYI”, the “soluble fraction (log2)” value is -1.22. In the case of “HMAKNYYEILGLKSDATLPEIKKAFKKLSKKFHPDKNRDDDGYFESMFKSINEAYQVLIDEDKRATFDSHH”, the “soluble fraction (log2)” value worked out at 0.166. Turning to “HMAKPAALLFEHRFDGMAEMRFRENIVKNDDGSYTYDEYFLSMLDRAGLEKIVQENMEVWIAYAKQ”, the “soluble fraction (log2)” value was -1.42. “HMAKPVKSPLPGSVIKVAVKVGQQIKRGDLLLTLESMKMENSILAEKDGVVKNIHVQAGQSVMQDDLLLDI”: the “soluble fraction (log2)” value was -0.957.

For “HMAKPVNISAEPYHYDPTRFRVTFELPRLSDQPRKRIRKVAPAGLDREQALAWAKRLEREVLHELLR”, the “soluble fraction (log2)” value was -0.144. With “HMAKVSVNIILKDGVDQTTFVNDVTSNTEVDLKNQLISLPQMVVLSVEEDYINTLKSHSSISILELDE”, the “soluble fraction (log2)” value was -0.541.

On to “HMALALDDLFDRYEQLQDQSLGDKTEEGQELRAMIRAYIEQEGLSVRVTRSTTNRELLELIEQEMEG”, for which the “soluble fraction (log2)” value was -0.703. For “HMALENTDLYAHLRLSHTASVPEIQAALSARVKHMPLQTWLLARKWLLHPRLRERYDGMWSVRFGA” the value was -0.136; for “HMALGRTGEVYLPIPAGRAGHGKISITLQGALREVDAVTAGEALPRGTSVRVVDVAGNGVLLVEK”, 0.32. As for “HMALHDTLSYEEYLDLGLNGKADSAEKRELVAHALHLGRPNAKTLYKRLNMLQLNRKDVAALLEQ”, the “soluble fraction (log2)” value is 0.299. Under “HMALHLPTTTINGRQYYYFKSKEKITVYGLSKRLGLTRQEIVEHNPSAVDGIKRGSTLYFPVDEFAD” stands -0.074; under “HMALLKRQDEILMYLYTQNKWITGNELAQLFHVSLRTIRNDISFINTEKSNSVLSNRNKGYHIAKDFVYNE”, -0.0758. For “HMALPDSEKRQWLVDEVNERGLKLPDDVLEYLFARVGRSQAHLVDVIEKLDFESLAQSRKLTIPFVREVLK” the value was -0.753; for “HMALPRYFFRTRENGAVLFKTPVNNHQNRLEMHQIAAINIRNETVKPLGDTVLTDEETELIADWMRERKTV”, -0.596. In the case of “HMALSVRNRMSDLLRMLGDGEFHRFENLFSLEEGRHGIVVTFLAMLELAKEQLVEISQGESLAPIYLKSLA”, the “soluble fraction (log2)” value is -0.403.

In the case of “HMAMDVKEVLLPGVGLRYEFDNSDGDRIGVIAKRSGDFEVVRYTAADRDAAQPMFRLTDEEADALAQILGA”, the “soluble fraction (log2)” value was -0.487.

Regarding “HMAMDYYAIGQRIRKFRKAHDWSQEELAEKVEISTTHMSHIETGSTKLSLPVLVSLANVLDVRTDDLLF”, the “soluble fraction (log2)” value is -0.272. For “HMAMKFQDIVRQKRKELGLTQEQAARRLGVSPAAVSKWESGQSLPDTPLFAPLARLLHTDLNTLLSFE”, the “soluble fraction (log2)” value was -0.34.

For the sequence “HMAMTQNVDLAGRIVFNEKKEEVFNFGKHKGRSVAEVFEKEPSYYDWMLKGDFPAETKQVLTALRLRGLS”, the “soluble fraction (log2)” value was -0.64. Under “HMAMTRTEYLNQLKHYLKRLPHTDYEEAMDYFKEYFEEAGPENEAQVIQDLGNPKEAAYEILSQLL” stands -0.615. For “HMANDNFPLKLGSKGPRVLQLKTMLIQSLSNDALPKGRSSDAFDSELEALLSRNNLPTVIDETNFRVLTK” the value was 0.0149; for “HMANFGSILRNLRISRDITQSELAAKLGVSRSTVGMYETGAREPDFEAMEAIADTFNVDMDYLVGRSQ”, -0.326; for “HMANLAQITKTNAVALALKDVGAYNSEDLMKFIDLDKVVLGEDGKPQLEDTINSLKESSPYLFQ”, -0.843. For “HMANMTAKQINMFGDKLSRDKDFQSYYIAKSGDSREQYAQDIKGKLLDPFYVNAWMPYLEKIGFVPS” the value was 0.106; for “HMANPEFAGYINGKPYFGPTHQHRGVKMLGATHTRNPHPLVWDSIAESLANYDSRFRWSGGQIL”, -0.203. As to “HMANTAKVNVDTANLRETADENSKILKQLSLNDNLEVVEETGDWYKVKNSNVTGYVRKDLVTVEN”, the “soluble fraction (log2)” value was 0.244. Under “HMANTLDPMDLKQIISLHLDGFSNRKIGATLGISRNTVNTYMRLFSVSDYALKELLTLDNATLDKLFPS” stands -0.603; under “HMANYYEILGVKHDATEAEIKAAYKQAAKSAHPDAGGSNEKMQEVNAAWEVLGNAQKRAEYDARMA”, 0.349.

As for “HMAPAGGITRQDLFAWGLMGGEGSREKRQQLKKSLGLPSHLGTSGFLDALNLIATRDQVEALLHK”, the “soluble fraction (log2)” value was not below 0.43. Turning to “HMAPAILTVQVKPDKIREIIGPGGKMIRMIQSETNTRVEVDDSGLVKIAAVSKEEGEAALKMVSDITME”, the “soluble fraction (log2)” value is -0.177. On to “HMAPDAPDGFVHRWIRAEMLGQEDKSNVHRRMQEGYELVRADEYPDSDLPVAEGRYAGIIGVGGLLLARF”, for which the “soluble fraction (log2)” value was -0.268. Take “HMAPDDTAVWSAFIGWFRTAPDGPNPLGAYAAKLGEEGLDAAEVGRRMTVIVRLFAEKPEGAEVFYDRTYA”: the “soluble fraction (log2)” value was -0.456. Under “HMAPDYYALLGVPRNATTAEVRKAFRGKALEQHPDRGGDEESFRLLSKAYDVLSDSERRKYYDRTG” stands 0.14.

Turning to “HMAPEKLVHELVGLSLRAGNLDLLAATLSAHKTVLSKESTAEYVKAGLAIEPNHLPLRVLAEQDLGWS”, the “soluble fraction (log2)” value is -0.936. Under “HMAPFVIQQGQDVRLISKGPGFAVSNDGKALTNAAEGQLARARTANGQTVSGIARQGGIIEIA” stands -0.068; under “HMAPGIGDSKYFSHIYEMKHIDTIIDNDKGDRLIEHFEIQDTPFIFTKHWTSAFGFSKRQQEIITDYLSYF”, -0.0653. For “HMAPGVHVEALLPYTAGSLVSQIREYGNVDAVEYRDTGILLQADVDERLAAQIMDQALEDPV” the value was -1.03.

For the sequence “HMAPLADQIVDLLKEHDGFLPLHDNSSPEDIRATVGTSKKAFKQAIGGLFREKRIVIGPTGIRLIS”, the “soluble fraction (log2)” value is 0.146.

For “HMAPLATIHVSSLSQKPFYLYGTFEDRRGNHLFFLEQIMGENKSIPVAMPSSAINPKIHASLTPPKG”, the “soluble fraction (log2)” value was -0.0804. Under “HMAPLQDENGDLTFSYNGKTYTVNVNSEEDRNSFAEDFNKENGKKFSWFKERAGLQHYVFYDTEM” stands -0.918; under “HMAPLVTLEADGNGAVKLSNLAGHSIREVAGALGGAGLSLIPVGSGTSWKQNPAPGTVLHSGDTVTVYF”, 0.22; under “HMAPPIQQQVESLMNSFAKIGVTVPMLESRLQHAMSAVTANELVMLRKIGASIRDGFATVAEQFPA”, 0.0598.

For the sequence “HMAPPPPEGYIHRWIRESVMGFDDKKNLSARIREGFELVRAEEYPDYEAPTVMDGKHAGVIANGGLLLARF”, the “soluble fraction (log2)” value was -0.236. As to “HMAPQQARAAKTRVKLLDAAATVVRRDGIQAMTLARVAEEAGVSKGGLLHHFGSKEELVTGMLEQ”, the “soluble fraction (log2)” value was -0.402.

Regarding “HMAPRASDALTERELDVLRVVADGASVAEAAEMLVVSRETVKKHLGNIYAKLGVHSKMQAVALLREEGV”, the “soluble fraction (log2)” value is -1.27. Regarding “HMAPRKNIRLLRAAQDKAAAEGDHETVDAIRGQIAALIETLPVQYREEYLLQEKGRENGLKLAIENAAK”, the “soluble fraction (log2)” value was -0.214. Take “HMAPSLQISLKQAIITAQQQHPGSKALNADFDGARGTPRYVIETLLPTGELRELTIDAQSGQVMEDHPDR”: the “soluble fraction (log2)” value turned out to be 0.198.

Consider “HMAPSPEGAAILRESVESVARDQVDRVALTMTARGYTTAEIAAALMVDRSTISRRLYAMRDRYHAQQDNAQ”, for which the “soluble fraction (log2)” value was -0.666.

“HMAPSVNEVAWAQKIIDAHAEAAAAGKGLVVVDGKLIENLHVEEAKQLLSLSDAIAKNDASNG”: the “soluble fraction (log2)” value is -0.31. For “HMAPTGTDRQTPHTRDELYLVLSGTGTFVNGDARHPFGPGDALFVPAGAEHRFEDFSDDFRTWVVFYGAEG” the value was -0.734.

As to “HMAPVVAILTRQLPLPQAQQLAGQTALVRVVKGGPGNEAELEFAGQNIQVKLPPGRQLTAGEMVTVAFALS”, the “soluble fraction (log2)” value was -0.0882. For “HMAQASEPMLALIRLKWWEEQINSPVKGDSLPLLSQLNSHISAGYLSRSQVTSLIQRWQDYA” the value was -1.18; for “HMAQFNELLFELRQDRKMTQEDLAKVLFVTSGTISNYENGVHLPDIEKLISLADFFGVTTDYLLG”, -0.726; for “HMAQLKYEQIKSYLQAEAVKPESATRMPTVRELMRRFNVSLVTVNRALSELEHAKVIVRRQGAGIVAAQ”, 0.0424. With “HMAQLPADMSRVKSADVSDAQLREFVQKAQASGQTETQLFREFSRRGMPTNEINILRSRMVGLQNN”, the “soluble fraction (log2)” value was found to be 0.0928. For “HMAQLPPTATARATSDVSGLTASAALRTLLEQGFVPQIHGSGKVSRQHPPAGTLLEPGSTIQLFLEPS” the value was not below 0.43; for “HMAQLSDMLTYLRKRKGLSQQELANTLKISRSAIGMYETGKREPDLETLEVFADFYNVDMNTLTGKA”, 0.192; for “HMAQNILPGQKNAIKSLATSAGFSQQELDSYLSQNYGKTLNNLSQKEGASLISGLQDGSIKKP”, 0.0359. Under “HMAQPIPSGSDIREAREAAGMNLRDFARMVGGGAIGTWSHYETGKPIRVKSISPEVWQRVRDFILQHGK” stands 0.036. Under “HMAQRAADEARTHEILGLLRQARAALDHGGTARAARLRASIAEKLPAAPALPAWFARQLEQVDSQLAELQD” stands -0.568; under “HMAQRFDLGDKLNPQSSEFEYLGTSSRTGVSTYRYKNVPTQLFFGRQIGDIVVGVRRGMITLTIYNL”, 0.146; under “HMAQSTALVNLAQAEINKRGLTQTEVQARLSEEGINVNSISPAEYPKYQKQILSILDQMQKEKQLSKEV”, 0.359.

Take “HMAQVDAVQQVLQAFPALRSGQSQHLSQVVAALRQRGILTVGTKTTAWFAQWASVFQLLPLQVPNRIRYQS”: the “soluble fraction (log2)” value turned out to be 0.2.
